Measurements taken from patent US6544753 (MERCK, dated 2003).

T1: human GALR2 (human, UniProt O43603 1-387)
T1 sequence: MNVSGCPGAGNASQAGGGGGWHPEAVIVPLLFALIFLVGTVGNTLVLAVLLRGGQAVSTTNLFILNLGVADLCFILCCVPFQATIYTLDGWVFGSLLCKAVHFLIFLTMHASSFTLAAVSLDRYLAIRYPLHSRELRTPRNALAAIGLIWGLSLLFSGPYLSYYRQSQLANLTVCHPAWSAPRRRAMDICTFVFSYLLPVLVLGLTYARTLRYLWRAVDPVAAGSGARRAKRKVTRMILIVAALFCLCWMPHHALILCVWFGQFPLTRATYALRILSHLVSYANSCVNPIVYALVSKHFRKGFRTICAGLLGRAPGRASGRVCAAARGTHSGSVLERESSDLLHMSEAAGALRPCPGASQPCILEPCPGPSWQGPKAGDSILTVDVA


biological target: T1, human GALR2; test: cell-based or functional assay

Molecule | aequorin bioluminescence in 293-AEQ17 cells, EC50 [nM]
M40 (peptide) | 8.8
M35 (peptide) | 44

The next lines start with the values.

aequorin bioluminescence in 293-AEQ17 cells, EC50 [nM] | Molecule
> 10000 | TLNSAGYLLGPHAIDNHRSFSDKHGLT (peptide, UniProt P10683 35-61, looked up) [rat Gal (3-29)]
31 | WTLNSAGYLLGPHAIDNHRSFSDKHGLT (peptide, UniProt P10683 34-61, looked up) [rat Gal(2-29)]
